Results reported in US7812117B2, “Vasostatin as marrow protectant” (The United States of America as represented by the …, priority 1998, dated 2010).

Columns and labels:
[1] = tested on: variety of cell and cell lines; test: Proliferation of a variety of cells and cell lines (mononuclear cells, lymphoid, tumor lines, fibroblasts); type: cell-based, human; details: vaso 0.25 to 50 μg/ml
Text: Human mononuclear cells, and mononuclear cells enriched for B or T cells, were used in proliferation assays in the presence of phytohemagglutinin(Sigma), pokeweed mitogen (Sigma) or Epstein-Barr virus (B95-8 strain), as described previously (Tosato et al., 1988). The lymphoblastoid cell line VDS-0, the Burkitt cell lines CA46, BL41, KK124, Ag876, SHO (Cherney et al., 1997), the T-cell line Molt-4 (ATCC), the Hodgkin's lymphoma cell line Hs445 (ATCC); the prostate adenocarcinoma cell lines TSU-Prl (from A. Passaniti, NIH, Baltimore, Md.), Du145 (ATCC), and PC3 (ATCC), and the acute promyelocytic leukemia cell line HL60 (ATCC) were cultured in RPMI 1640 medium with 10% heat-inactivated FCS (BioWhittaker), […] L-glutamine (Sigma) and 5 μg/ml gentamicin, and tested in 3-5 days proliferation assays at cell densities varying from 300 to 2400 cells/microwell. The neuroblastoma cell line SKNMC (ATCC) was cultured in EMEM medium BioWhittaker) with 10% heat inactivated FCS and gentamicin and tested for proliferation at 125-1000 cells/well. The lung adenocarcinoma cell line A549 (ATCC) was cultured in F-12 Nutrient Mixture (HAM, Gibco BRL) with 10% heat-inactivated FCS, gentamicin and tested for proliferation at 250-2000 cells/well. […]

[2] = tested on: CD34- mononuclear cell population; test: Proliferation of negatively selected human CD34- mononuclear cells; type: cell-based; details: Stem Cell Factor and Flt-3 ligand alone or in conjunction with vaso
Experimental: The purified human CD34+ cells along with the negatively selected CD34− mononuclear cell population were cultured in RPMI 1640 medium containing 15% FBS. Human Stem Cell Factor (300 ng/ml) and Flt-3 ligand (300 ng/ml) were added to the culture medium. […] Thus, purified hematopoietic cells from both mouse and man proliferate in response to vaso.

[3] = tested on: murine bone marrow cells; test: Murine bone marrow cell number in culture (Owen's reagent formazan absorbance at 490 nm); type: cell-based, mouse
Experimental: FIG. 7 is a series of bar graphs showing the effects of vaso on growth-factor induced proliferation of bone marrow cells with or without methotrexate. Bone marrow cells populations, obtained from the femural cavities of C57BL/6NCR mice (3.5 months of age), were cultured in 24 well tissue culture plates in culture medium alone or medium containing a mixture of the growth factors (GF) IL-3 (20 ng/ml), IL-6 (100 ng/ml) and Stem Cell Factor (100 ng/ml). Vaso was added to the cultures at concentrations ranging between 1.25 and 10 μg/ml. Methotrexate was added to the cultures at the concentration of 100 nM. FIG. 7A is a bar graph of cell proliferation as measured by ^3H thymidine incorporation during the final 22 hr of a 7-day culture. The results reflect the mean cpm of triplicate cultures. FIG. 7B is a bar graph of cell numbers measured as mean absorbance (490 nM) after conversion of Owen's reagent into colored formazan product (One Solution Reagent, Promega).
FIG. 9 is a series of bar graphs showing that vaso increases bone marrow cell proliferation in vitro. Bone marrow cells populations, obtained from the femural cavities of C57BL/6NCR mice (8 weeks of age), were cultured in culture medium alone or in medium supplemented with a mixture of IL-3 (20 ng/ml), IL-6 (100 ng/ml) and Stem Cell Factor (SF, 100 ng/ml). […] FIG. 9A is a bar graph of cell proliferation as measured by ^3H thymidine incorporation during the final 20-23 hr of a 4, 5 or 6-day culture. FIG. 9B is a bar graph of cell number measured as absorbance (490 nM) after conversion of Owen's reagent into colored formazan product (One Solution Reagent, Promega).
In the absence of exogenously added growth factors, vaso at the highest concentration used (10 μg/ml) had low level stimulatory effect (approximately 2-fold stimulation of background cpm).
Stimulation of bone marrow cell proliferation by vaso was associated with an increased number of bone marrow cells, measured as absorbance from the conversion of Owen's reagent into a colored formazan product (One Solution Reagent, Promega, Madison. Wis.). […]

[4] = tested on: peripheral white blood cells; test: Peripheral white blood cell counts after total body irradiation of C57BL/6N mice; type: in vivo; details: vaso 300 μg/mouse/day s.c.
Experimental: In a subsequent experiment, groups of 8 week old C57BL/6N mice were irradiated with either 300 or 400 rad total body irradiation and treated the mice daily with s.c. inoculations of either buffer of vaso (300 μg/mouse/day). Peripheral white blood cell counts were obtained on days 5 and 9 post irradiation. On day 5, the total white cell count in the mice that had received 300 rad total body irradiation and had been treated with buffer was 1.2×10^3/mm^3 as opposed to 2.14×10^3/mm^3 in the mice treated with vaso. Also on day 5 post-irradiation, the total white cell count in the mice that had received 400 rad total body irradiation and had been treated with buffer was 0.66×10^3/mm^3 as opposed to 1.22×10^3/mm^3 in the mice treated with vaso. On day 9 post irradiation, the total white cell count in the mice that had received 400 rad total body irradiation and had been treated with buffer was 0.79×10^3/mm^3 as opposed to 1.37×10^3/mm^3 in the mice treated with vaso.

B1: vaso: N-terminal domain of calreticulin (amino acids 1-180, SEQ ID NO:3); given as fusion protein with maltose binding protein, MBP-vaso (protein)
chain: EPAVYFKEQFLDGDGWTSRWIESKHKSDFGKFVLSSGKFYGDEEKDKGLQTSQDARFYALSASFEPFSNKGQTLVVQFTVKHEQNIDCGGGYVKLFPNSLDQTDMHGDSEYNIMFGPDICGPGTKKVHVIFNYKGKNVLINKDIRCKDDEFTHLYTLIVRPDNTYEVKIDNSQVESGSLE
modifications: Vasostatin
- effects on proliferation of a variety of cell and cell lines [1]: minimal stimulatory (or inhibitory) effects
- proliferation of CD34- cell population [2]: proliferated minimally
- number of cells in culture ([3]; vaso 10 μg/ml added to medium alone): increased only minimally
- number of cells counted after 5 days of culture ([3]; vaso 10 μg/ml, growth factors (IL-3, IL-6 and Stem Cell Factor) either alone or with etoposide 77 nM): increased significantly
- number of living bone marrow cells in culture ([3]; vaso with methotrexate 100 nM and growth factors): increase in the number of living bone marrow cells
- total white cell count, day 5 post irradiation ([4]; 300 rad total body irradiation, buffer 1.2×10^3): 2.14×10^3 /mm^3
- total white cell count, day 5 post irradiation ([4]; 400 rad total body irradiation, buffer 0.66×10^3): 1.22×10^3 /mm^3
- total white cell count, day 9 post irradiation ([4]; 400 rad total body irradiation, buffer 0.79×10^3): 1.37×10^3 /mm^3
